Measurements as given in the RNAGym collection of RNA variant scans (doi:10.7554/elife.80360).

B1: HDV Ribozyme (parent)
chain: GGCCGGCAUGGUCCCAGCCUCCUCGCUGGCGCCGGCUGGGCAACAUUCCGAGGGGACCGUCCCCUCGGUAAUGGCGAAUGGGACCCA

Variants of: B1
Assay: self-cleavage, relative activity (ratio to wild type); higher = more cleavage; co-transcriptional

Variant	self-cleavage
GGCCGGCAUGGUCCCAGCCUCCUCGCUGGCGCCGGCUCGGCAACAUUCCGAGGGGACCGUCCCCUCGGUAAUGGCGAACGGGACCCA	0.0264
GGCCGGCAUGGUCCCAGCCUCCUCGCUGGCGCCGGCUUGGCAACAUUCCGAGGGGACCGUCCCCUCGGUAAAGGCGAAUGGGACCCA	0.0378
GGCCGGCAUGGUCCCAGCCUCCUCGCUGGCGCCGGCUCGGCAACAUUCCGAGGGGACCGUCCCCUCGGUAAUGCCGAAUGGGACCCA	0.148
GGCCGGCAUGGUCCCAGCCUCCUCGCUGGCGCCGGCUCGGCAACAUUCCGAGGGGACCGUCCCCUCGGUAAUCGCGAAUGGGACCCA	0.284
GGCCGGCAUGGUCCCAGCCUCCUCGCUGGCGCCGGCUUGGCAAGAUUCCGAGGGGACCGUCCCCUCGGUAAUGGCGAAUGGGACCCA	0.0652
GGCCGGCAUGGUCCCAGCCUCCUCGCUGGCGCCGGCUUGGCAACAUUCCGAGGGGACCGUCCCCUCGGUAAUGGCGUAUGGGACCCA	0.0845
GGCCGGCAUGGUCCCAGCCUCCUCGCUGGCGCCGGCUUGGCAACAUUCCGAGGGGACCGUCCCCUCGGUAAUGGCGCAUGGGACCCA	0.0554
GGCCGGCAUGGUCCCAGCCUCCUCGCUGGCGCCGGCUGAGCCACAUUCCGAGGGGACCGUCCCCUCGGUAAUGGCGAAUGGGACCCA	0
GGCCGGCAUGGUCCCAGCCUCCUCGCUGGCGCCGGCUUGGCAACAUUCCGAGGGGACCGUCCCCUCGGUAAUGGCUAAUGGGACCCA	0.237
GGCCGGCAUGGUCCCAGCCUCCUCGCUGGCGCCGGCUCCGCAACAUUCCGAGGGGACCGUCCCCUCGGUAAUGGCGAAUGGGACCCA	0.0426
GGCCGGCAUGGUCCCAGCCUCCUCGCUGGCGCCGGCUUGGCAACAUUCCGAGGGGACCGUCCCCUAGGUAAUGGCGAAUGGGACCCA	0.185
GGCCGGCAUGGUCCCAGCCUCCUCGCUGGCGCCGGCUCGGCAACAUUCCGAGAGGACCGUCCCCUCGGUAAUGGCGAAUGGGACCCA	0.313
GGCCGGCAUGGUCCCAGCCUCCUCGCUGGCGCCGGCUCGGCAACAUUCCGAGCGGACCGUCCCCUCGGUAAUGGCGAAUGGGACCCA	0.295
GGCCGGCAUGGUCCCAGCCUCCUCGCUGGCGCCGGCUUGGCAGCAUUCCGAGGGGACCGUCCCCUCGGUAAUGGCGAAUGGGACCCA	0.208
GGCCGGCAUGGUCCCAGCCUCCUCGCUGGCGCCGGCUCGGCAACAUCCCGAGGGGACCGUCCCCUCGGUAAUGGCGAAUGGGACCCA	0.161
GGCCGGCAUGGUCCCAGCCUCCUCGCUGGCGCCGGCUUGGCAACAUUCCAAGGGGACCGUCCCCUCGGUAAUGGCGAAUGGGACCCA	0.218
GGCCGGCAUGGUCCCAGCCUCCUCGCUGGCGCCGGCUUGGCAACAUUCCUAGGGGACCGUCCCCUCGGUAAUGGCGAAUGGGACCCA	0.352
GGCCGGCAUGGUCCCAGCCUCCUCGCUGGCGCCGGCUCGGCAACAUUCCGAGGGUACCGUCCCCUCGGUAAUGGCGAAUGGGACCCA	0.193
GGCCGGCAUGGUCCCAGCCUCCUCGCUGGCGCCGGCUCGGCAACAUUCCGAGGGGACCGUCCCCUCGGUAACGGCGAAUGGGACCCA	0.341
GGCCGGCAUGGUCCCAGCCUCCUCGCUGGCGCCGGCUUGGCAACAUUCCGGGGGGACCGUCCCCUCGGUAAUGGCGAAUGGGACCCA	0.32
GGCCGGCAUGGUCCCAGCCUCCUCGCUGGCGCCGGCUUGGCAACAUUCCGCGGGGACCGUCCCCUCGGUAAUGGCGAAUGGGACCCA	0.246
GGCCGGCAUGGUCCCAGCCUCCUCGCUGGCGCCGGCUUGGCAACAUUCCGAGGGGACCGUCCCCUCGGUAAUGCCGAAUGGGACCCA	0.115

Variant	self-cleavage
GGCCGGCAUGGUCCCAGCCUCCUCGCUGGCGCCGGCUUGGCAACAUUCCGAGGGGACCGUCCCCUCGGUAAUGUCGAAUGGGACCCA	0.14
GGCCGGCAUGGUCCCAGCCUCCUCGCUGGCGCCGGCUCGGCAACAUUCCGAAGGGACCGUCCCCUCGGUAAUGGCGAAUGGGACCCA	0.322
GGCCGGCAUGGUCCCAGCCUCCUCGCUGGCGCCGGCUUGGCAACAUUCCGAGGGGACCGUCCCCUCGGUAAUGGCGAAUGGGAACCA	0.174
GGCCGGCAUGGUCCCAGCCUCCUCGCUGGCGCCGGCUGAGCAACAUUCCGAGGGGACGGUCCCCUCGGUAAUGGCGAAUGGGACCCA	0.363
GGCCGGCAUGGUCCCAGCCUCCUCGCUGGCGCCGGCUUGGCAACAUUCCGAGGGGUCCGUCCCCUCGGUAAUGGCGAAUGGGACCCA	0.273
GGCCGGCAUGGUCCCAGCCUCCUCGCUGGCGCCGGCUUGGCAACAUUCCGAGGGGGCCGUCCCCUCGGUAAUGGCGAAUGGGACCCA	0.193
GGCCGGCAUGGUCCCAGCCUCCUCGCUGGCGCCGGCUUGGGAACAUUCCGAGGGGACCGUCCCCUCGGUAAUGGCGAAUGGGACCCA	0.325
GGCCGGCAUGGUCCCAGCCUCCUCGCUGGCGCCGGCUGAGCAACAUUCCGAGGGGACCGUCCCCUCGGUAAUGGCGAAUGGGACCCC	0.578
GGCCGGCAUGGUCCCAGCCUCCUCGCUGGCGCCGGCUGAGCAACAUUCCGAGGGGACCGUCCCCUCGGUAAUGGCGAAUGGGACCCG	0.517
GGCCGGCAUGGUCCCAGCCUCCUCGCUGGCGCCGGCUCGGCAACAUUCCAAGGGGACCGUCCCCUCGGUAAUGGCGAAUGGGACCCA	0.188
GGCCGGCAUGGUCCCAGCCUCCUCGCUGGCGCCGGCUCGGCAACAUUCCUAGGGGACCGUCCCCUCGGUAAUGGCGAAUGGGACCCA	0.157
GGCCGGCAUGGUCCCAGCCUCCUCGCUGGCGCCGGCUGAGCAACAUUCAGAGGGGACCGUCCCCUCGGUAAUGGCGAAUGGGACCCA	0.573
GGCCGGCAUGGUCCCAGCCUCCUCGCUGGCGCCGGCUUGGCAACAUUCCGAGGGGACCGUCCCCUCGGUACUGGCGAAUGGGACCCA	0.225
GGCCGGCAUGGUCCCAGCCUCCUCGCUGGCGCCGGCUGAGCAACGUUCCGAGGGGACCGUCCCCUCGGUAAUGGCGAAUGGGACCCA	0.629
GGCCGGCAUGGUCCCAGCCUCCUCGCUGGCGCCGGCUUGGCAACAUUCCGAGGGGACCGUCCCCGCGGUAAUGGCGAAUGGGACCCA	0.233
GGCCGGCAUGGUCCCAGCCUCCUCGCUGGCGCCGGCUGAGCAACAUUCCGAGGGGACCGUCCCCUCGGUAAUGGCGGAUGGGACCCA	0.141
GGCCGGCAUGGUCCCAGCCUCCUCGCUGGCGCCGGCUUGGCAACAUCCCGAGGGGACCGUCCCCUCGGUAAUGGCGAAUGGGACCCA	0.133
GGCCGGCAUGGUCCCAGCCUCCUCGCUGGCGCCGGCUUGGCAACAUGCCGAGGGGACCGUCCCCUCGGUAAUGGCGAAUGGGACCCA	0.166
GGCCGGCAUGGUCCCAGCCUCCUCGCUGGCGCCGGCUUGGCAACUUUCCGAGGGGACCGUCCCCUCGGUAAUGGCGAAUGGGACCCA	0.158
GGCCGGCAUGGUCCCAGCCUCCUCGCUGGCGCCGGCUUGGCAACGUUCCGAGGGGACCGUCCCCUCGGUAAUGGCGAAUGGGACCCA	0.0426
GGCCGGCAUGGUCCCAGCCUCCUCGCUGGCGCCGGCUGAGCAACAUUCCGAGGGGACCGUACCCUCGGUAAUGGCGAAUGGGACCCA	0.546
GGCCGGCAUGGUCCCAGCCUCCUCGCUGGCGCCGGCUGAGCAACAUUCCGAGGGGACCGUUCCCUCGGUAAUGGCGAAUGGGACCCA	0.54

Variant	self-cleavage
GGCCGGCAUGGUCCCAGCCUCCUCGCUGGCGCCGGCUGAGCAACAUUCCGAGGGGUCCGUCCCCUCGGUAAUGGCGAAUGGGACCCA	0.676
GGCCGGCAUGGUCCCAGCCUCCUCGCUGGCGCCGGCUGAGCAACAUUCCGAGGGGCCCGUCCCCUCGGUAAUGGCGAAUGGGACCCA	0.447
GGCCGGCAUGGUCCCAGCCUCCUCGCUGGCGCCGGCUGAGCAACAUUCCGAGGGGACCGUCCCCUCGGUAUUGGCGAAUGGGACCCA	0.383
GGCCGGCAUGGUCCCAGCCUCCUCGCUGGCGCCGGCUUGGCAACAUUCCGAUGGGACCGUCCCCUCGGUAAUGGCGAAUGGGACCCA	0.273
GGCCGGCAUGGUCCCAGCCUCCUCGCUGGCGCCGGCUUGGCAACAUUCCGACGGGACCGUCCCCUCGGUAAUGGCGAAUGGGACCCA	0.169
GGCCGGCAUGGUCCCAGCCUCCUCGCUGGCGCCGGCUUGGCAACAUUGCGAGGGGACCGUCCCCUCGGUAAUGGCGAAUGGGACCCA	0.156
GGCCGGCAUGGUCCCAGCCUCCUCGCUGGCGCCGGCUGAGCAACAUUCCGAGGGGAGCGUCCCCUCGGUAAUGGCGAAUGGGACCCA	0.591
GGCCGGCAUGGUCCCAGCCUCCUCGCUGGCGCCGGCUUGGCAACAUUCCGAGGGGACCGUCCCCUCGCUAAUGGCGAAUGGGACCCA	0.245
GGCCGGCAUGGUCCCAGCCUCCUCGCUGGCGCCGGCUUGGCAACAUUCCGAGGGGACCAUCCCCUCGGUAAUGGCGAAUGGGACCCA	0.181
GGCCGGCAUGGUCCCAGCCUCCUCGCUGGCGCCGGCUUGGCAACAUUCCGAGGGGACCCUCCCCUCGGUAAUGGCGAAUGGGACCCA	0.264
GGCCGGCAUGGUCCCAGCCUCCUCGCUGGCGCCGGCUUGGCAACAUUCCGAGGGGACCGUGCCCUCGGUAAUGGCGAAUGGGACCCA	0.086
GGCCGGCAUGGUCCCAGCCUCCUCGCUGGCGCCGGCUGAGCAACAUUCCGAGGGGACCGUCCCCUCGGUGAUGGCGAAUGGGACCCA	0.483
GGCCGGCAUGGUCCCAGCCUCCUCGCUGGCGCCGGCUCGGCAACAUUCCGAGGGGACCGUCCCCUCGGUAAUGGCGAAUGGGACUCA	0.185
GGCCGGCAUGGUCCCAGCCUCCUCGCUGGCGCCGGCUUUGCAACAUUCCGAGGGGACCGUCCCCUCGGUAAUGGCGAAUGGGACCCA	0.0573
GGCCGGCAUGGUCCCAGCCUCCUCGCUGGCGCCGGCUCGGCAACAUUCCGAGGGGACCGUCCCCCCGGUAAUGGCGAAUGGGACCCA	0.391
GGCCGGCAUGGUCCCAGCCUCCUCGCUGGCGCCGGCUCGGCAACAUUCCGAGGGGACCGUCCCCGCGGUAAUGGCGAAUGGGACCCA	0.142
GGCCGGCAUGGUCCCAGCCUCCUCGCUGGCGCCGGCUUGGCAACAUUCCGAGGGGACCGUCCCCUCGGUAAUGGCGAAUGGGACACA	0.205
GGCCGGCAUGGUCCCAGCCUCCUCGCUGGCGCCGGCUUGGCAACAUUCUGAGGGGACCGUCCCCUCGGUAAUGGCGAAUGGGACCCA	0.172
GGCCGGCAUGGUCCCAGCCUCCUCGCUGGCGCCGGCUUGGCAACAUUCCGAGGGGACCGUCCCCUCGGUAAUGGCGAAUGGGACCGA	0.0573
GGCCGGCAUGGUCCCAGCCUCCUCGCUGGCGCCGGCUGAGCAUCAUUCCGAGGGGACCGUCCCCUCGGUAAUGGCGAAUGGGACCCA	0.0241
